Experimental data reported in US9701748B2, “Humanized anti-CD22 antibody” (IMMUNOMEDICS, INC., priority 2014, dated 2017).
Entries after “also recorded” stand apart in the source; their conditions may differ. Where two headings read alike, the source gives them in different places. Blank lines part the entries; values can stand above or below the molecule they belong to.

Experiments:
[1] = biological target: DDD of the RII form of PKA (Homo sapiens, UniProt P13861); details: Hundsrucker et al., 2006, cited from earlier work
[2] = test system: B cells gated from PBMCs of healthy donors; assay: Trogocytosis: surface antigen levels on B cells after overnight treatment of PBMCs, flow cytometry; assay type: cell-based, human
Protocol: Peripheral blood mononuclear cells (PBMCs) obtained from healthy donors were incubated overnight (16-24 h) with 10 μg/mL of either epratuzumab or an isotype control mAb (hMN-14) and the relative levels of various antigens on the surface of the B cells were analyzed by flow cytometry. PBMCs from heparinized whole blood of normal donors were isolated by density gradient centrifugation on UNI-SEP tubes (Novamed Ltd, Israel). PBMCs were reconstituted in RPMI media supplemented with 10% heat inactivated fetal bovine serum and plated at a cell density of 1.5×10^6/mL in non-tissue culture treated 48-well plates. […] Stained cells were analyzed by flow cytometry on a FACSCALIBUR® (BD Biosciences) using Flowjo (V7.6.5) software. Initially, the lymphocyte population was gated by side vs. forward scattering, and B cells were further gated from this population with the CD19 signal. The mean fluorescence intensity (MFI), obtained with fluorochrome-conjugated antibodies to various cell surface antigens, on the gated B cells was calculated following treatment with epratuzumab, hMN-14 or without antibody. PBMCs from 16 healthy donors were assessed in various experiments.

[3] = test system: RII isoform of PKA compared with the RI isoform; details: 2006, cited from earlier work; for isoform preference of peptide antagonists: Stokka et al.
[4] = test system: subcutaneous Ramos Burkitt lymphoma tumors; assay: Therapeutic efficacy in mice bearing a human Burkitt lymphoma xenograft (Ramos); assay type: in vivo, NCr athymic nu/nu mice
Protocol: A humanized anti-human CD22 monoclonal antibody, hRFB4, was conjugated with SN-38 as described in U.S. Pat. Nos. 7,999,083 and 8,080,250 (the Examples section of each of which is incorporated herein by reference) at a drug to antibody ratio of 5.71. This antibody drug conjugate (ADC) was tested in mice bearing subcutaneous (s.c.) Ramos Burkitt lymphoma tumors. Efficacy was compared to another anti-CD22 SN-38-ADC, hLL2-SN-38.
To perform this study, 5 week-old female NCr athymic nu/nu mice were injected s.c. with Ramos cells that were harvested from tissue culture (1×10^7 cells per mouse). Once tumors reach approximately 0.2 cm^3 in size, they were divided up into treatment groups. Mice received 250 μg hRFB4-SN-38 i.p. twice weekly for two weeks. Likewise, mice received hLL2-SN-38 or a non-tumor targeting anti-CEACAM5 SN-38-ADC (hMN14-SN-38) at the same dose/schedule as the hRFB4-SN-38. Saline control mice received 100 μL i.p. injections twice weekly for two weeks. Tumors were measured and mice weighed twice weekly. Animals were euthanized for disease progression if their tumor volumes exceeded 1.0 cm^3 in size.

[5] = test system: patients with moderately active SLE; assay: Open-label study of hRFB4 in systemic lupus erythematosus; assay type: in vivo, human
Protocol: An open-label, single-center study of patients with moderately active SLE (total British Isles Lupus Assessment Group (BILAG) score 6 to 12) is conducted. Patients receive dosages of hRFB4 of 50, 100, 200, and 400 mg subcutaneously (SC) every week for 6 weeks. Evaluations include safety, SLE activity (BILAG), blood levels of B and T cells, human anti-RFB4 antibody (HAHA) titers, and levels of cell surface CD19, CD20, CD21, CD22 and CD79b on B cells. It is determined that a dosage of 50-100 mg per SC injection results in optimal depletion of B cell CD19, while producing less than 50% depletion of normal B cells. Subsequently, a subcutaneous dose of 100 mg hRFB4 is administered to a new group of patients with moderately active SLE.

CD22 = biological target: T1, CD22 (Homo sapiens, UniProt P20273); assay: Binding affinity for CD22+ Daudi cells determined by ELISA (FIG. 2)
T1 construct: endogenous in cells; host or cells: Daudi (Burkitt lymphoma) cells
Protocol: FIG. 2. Comparative binding affinity for CD22+ Daudi cells of hLL2 IgG, hRFB4 IgG, chimeric RFB4 conjugated to AD2 peptide, and hMN-14 IgG, as determined by ELISA. The binding affinity of hRFB4 as determined for Daudi cells is about 10-fold higher than that of hLL2 and about 30% higher than the chimeric RFB4.
The hRFB4 antibody was prepared as described above, resulting in a humanized anti-CD22 antibody with variable region sequences as shown in FIG. 1A and FIG. 1B (SEQ ID NO:7 and SEQ ID NO:8). After expression, the binding affinity or CD22+ Daudi cells was compared to that of the hLL2 antibody, comprising the same FR and constant region sequences but different CDR sequences, and to the chimeric RFB4 antibody, comprising the same CDR sequences but different FR and constant region sequences.

[6] = test system: rheumatoid arthritis patients who have failed at least one TNFα inhibitor; assay type: in vivo, human
Protocol: Patients who have failed therapy with at least one TNFα inhibitor receive 4 doses of 40, 80, 160 or 320 mg hRFB4 injected s.c. every week or every two weeks. The antibody is either administered alone or in conjunction with oral methotrexate (10-25 mg/week).

[7] = test system: patients with primary Sjögren's syndrome; assay type: in vivo, human
Protocol: Patients with primary Sjögren's syndrome receive 8 doses of 20, 40, 80 or 160 mg hRFB4 injected s.c. every week or every two weeks.

[8] = test system: patients with SLE who have failed at least one previous therapy; assay: Combination therapy of SLE with hRFB4 and hLL2; assay type: in vivo, human; details: single antibody alone, same dosage and schedule
Protocol: Patients with SLE who have failed at least one previous therapy receive combination therapy with 160 mg each of hRFB4 and hLL2 (epratuzumab), administered s.c. in 2 injections weekly for four weeks. Control groups receive hRFB4 alone, hLL2 alone or irrelevant antibody (hMN-14) at the same dosage and schedule. […] All serum samples evaluated for anti-human antibodies (HAHA) are negative.

[9] = test system: patients with previously untreated or relapsed hairy cell leukemia; assay type: in vivo, human
Protocol: Patients with previously untreated or relapsed hairy cell leukemia receive 4 doses of 40, 80, 160 or 320 mg hRFB4 injected s.c. every week or every two weeks.

Daudi cells = assay: Dose-response of trogocytosis of CD22 and CD19 from Daudi cells (FIG. 6A, 6B); assay type: cell-based, human

Chain of DDD of the RII form of PKA (P13861 whole entry): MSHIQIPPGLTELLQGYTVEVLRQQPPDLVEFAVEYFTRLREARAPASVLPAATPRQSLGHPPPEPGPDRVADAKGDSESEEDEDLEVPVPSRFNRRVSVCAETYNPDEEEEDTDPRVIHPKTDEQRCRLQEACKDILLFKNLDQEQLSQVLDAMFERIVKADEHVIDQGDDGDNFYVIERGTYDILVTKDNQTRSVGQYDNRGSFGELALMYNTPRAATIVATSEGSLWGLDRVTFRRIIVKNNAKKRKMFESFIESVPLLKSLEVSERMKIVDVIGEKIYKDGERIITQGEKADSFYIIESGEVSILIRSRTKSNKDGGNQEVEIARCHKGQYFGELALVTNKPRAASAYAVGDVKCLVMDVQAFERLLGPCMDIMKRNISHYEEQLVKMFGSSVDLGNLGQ

Molecule: PEDAELVRTSKRLVENAVLKAVQQY [AKAP7δ-L304T-pep]
- affinity for the RII DDD sequence [1]: particularly high affinities

Molecule: hMN-14: anti-CEACAM5 antibody used as isotype control [reference compound]
- effect on levels of the tested surface proteins ([2]; isotype control mAb, 10 μg/mL, overnight): did not affect the levels of any of the tested proteins

Molecule: QIEYVAKQIVDYAIHQA [SuperAKAP-IS]
- selectivity for the RII isoform of PKA compared with the RI isoform ([3]; Gold et al.): five order of magnitude higher selectivity

Molecule: hMN14-SN-38: non-tumor targeting anti-CEACAM5 SN-38-ADC
- median survival time (MST) ([4]; 250 μg i.p. twice weekly for two weeks, days post-therapy initiation, death = tumor exceeding 1.0 cm^3): 5 days

Molecule: DLIEEAASRIVDAVIEQVKAAGAY [Ht-31]
- isoform preference of peptide antagonists [3]: greater affinity for the RII isoform of PKA

Molecule: hLL2-SN-38
- survival compared with hMN14-SN-38 control group ([4]; 250 μg i.p. twice weekly for two weeks): no significant difference
- mice tumor free when the study ended ([4]; day 87, 250 μg i.p. twice weekly for two weeks): 1 of 6
- survival compared with saline control ([4]; log-rank test, P=0.0012): significantly better than saline control

Molecule: PEDAELVRLSKRDVENAVLKAVQQY [AKAP7δ-L308D-pep]
- affinity for the RII DDD sequence [1]: particularly high affinities

Molecule: FEELAWKIAKMIWSDVFQQC [PV-38]
- isoform preference of peptide antagonists [3]: higher affinity for RI

Molecule: QIEYLAKQIVDNAIQQA [AKAP-IS]
- Kd ([1]; Alto et al., 2003, read-out: binding constant for DDD): 0.4 nM
- affinity for the RII DDD sequence [1]: particularly high affinities

Molecule: LEQYANQLADQIIKEATE [RIAD]
- isoform preference of peptide antagonists [3]: higher affinity for RI

Molecule: PEDAELVRLSKRLVENAVLKAVQQY [AKAP7δ-wt-pep]
- affinity for the RII DDD sequence [1]: particularly high affinities

- Kd (CD22; CD22+ Daudi cells, FIG. 2): 0.2 nM
- binding affinity, higher than the chimeric RFB4 (CD22; Daudi cells, versus chimeric RFB4 conjugated to AD2 peptide): about 30%
B1: hRFB4: humanized anti-CD22 antibody with variable region sequences SEQ ID NO:7 and SEQ ID NO:8 (antibody, V domains shown)
VH: QVQLVQSGAEVKKPGSSVKVSCKASGFTFSIYDMSWVRQAPGQGLEWVAYISSGGGTTYYPDTVKGRFTITADESTNTAYMELSSLRSEDTAFYFCARHSGYGSSYGVLFAYWGQGTLVTVSS
VL: DIQLTQSPSSLSASVGDRVTISCRASQDISNYLNWYQQKPGKAPKLLIYYTSILHSGVPSRFSGSGSGTDYTFTISSLQPEDIATYYCQQGNTLPWTFGGGTKVQIKR
- patients with BILAG decreases continuing to at least 18 weeks ([5]; 100 mg SC): 92%
- decrease of total BILAG scores ([5]; 100 mg SC, all patients): at least 50%
- depletion of normal B cells ([5]; 50-100 mg per SC injection, weekly for 6 weeks): less than 50%
- immunogenicity ([5]; SLE patients): no evidence of immunogenicity
- tolerability ([5]; SLE patients): well tolerated
- patients with improvement in at least one BILAG B- or C-level disease activity ([5]; at 6, 10 and 18 weeks): 93%
- average decrease of B-cell levels ([5]; at 18 weeks): 35%
- patients with multiple BILAG B involvement at baseline who completely resolved all B-level disease activities ([5]; by 18 weeks): 3 patients
- depletion of B cell surface levels of CD19, CD20, CD21, CD22 and CD79b ([6]; 80 mg): moderate level
- depletion of B cell surface levels of CD19, CD20, CD21, CD22 and CD79b ([6]; 160 mg): much higher level
- B-cell depletion ([6]; all dosage levels): Transient B-cell depletion
- human anti-hRFB4 antibody (HAHA) in serum samples ([6]; in vivo): negative
- release pattern of s.c. antibody ([6]; in vivo, sc): slow release pattern over several days
- objective responses ([6]; s.c., all dose levels): observed at all dose levels
- optimum dosage ([6]; six months after treatment): 160 mg
- median corticosteroid after treatment ([7]; 80 mg group, six months after treatment, decrease from 17.5 mg/day): 8.3 mg/day
- B-cell depletion ([7]; all dosage levels): Transient B-cell depletion
- human anti-hRFB4 antibody (HAHA) in serum samples ([7]; in vivo): negative
- objective responses ([7]; s.c., all dose levels): observed at all dose levels
- trogocytosis (MFI of CD22, CD19, CD21, CD79b on B cells) compared with hLL2 ([2]; overnight treatment of PBMCs, FIG. 4A-4D): more efficacious than the hLL2 antibody; also recorded: as capable of mediating trogocytosis as hLL2
- objective responses [8]: Objective responses are observed
- depletion of B cell surface levels of CD19, CD20, CD21, CD22 and CD79b ([9]; 40 mg): moderate level
- depletion of B cell surface levels of CD19, CD20, CD21, CD22 and CD79b ([9]; 80 mg): much higher level
- B-cell depletion ([9]; all dosage levels): Transient B-cell depletion
- objective responses (mostly partial responses) ([9]; dose of 80 mg): 30%
- human anti-hRFB4 antibody (HAHA) in serum samples ([9]; in vivo): negative
- release pattern of s.c. antibody ([9]; in vivo, sc): slow release pattern over several days
- optimum dosage ([9]; six months after treatment): 80 mg
- minimal concentration to induce the maximal level of trogocytosis of CD19 (Daudi cells; CD19 from Daudi cell, FIG. 6B): 1 ng/mL
- minimal concentration to induce the maximal level of trogocytosis of CD22 (Daudi cells; CD22 from Daudi cell, FIG. 6A): 1 ng/mL
- concentration inducing the maximal level of trogocytosis of CD19 and CD22 (Daudi cells; dose-response curve, FIG. 6A and 6B): 1 ng/mL
